Experimental data published in the nanobody polyreactivity screen of Harvey et al. (2022).

Assay: yeast display, Sf9 membrane polyspecificity reagent, FACS + sequencing; frameworks hold sequencing errors
Outline: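 Synthetic nanobody libraries on Saccharomyces cerevisiae BJ5465 were galactose-induced for 36–48 hours, stained 1 hour at 4 °C with 10% biotinylated, detergent-solubilized Sf9 membrane reagent and enriched on streptavidin microbeads. FACS then separated cells into low and high (top ~1%) gates by anti-HA (expression) and streptavidin (reagent binding) fluorescence. Genes were colony-PCR amplified, MiSeq 2 × 250 sequenced and CDR-length filtered. A clone's polyreactivity label is that of its gate of origin.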

Sequence | polyreactivity (PSR sort gate)
QVQLVESGGGLVQAGGSLRLSCAASGSTFSSYAMGWYRQAPGKDRELVAAISSRGGRTYYADSVKGRFTISRDNAKNTVYLQMNSLKPEDTAVYYCNAPTSALRQGKDYGYWGQGTQVTVSS | high polyreactivity
QVQLVESGGGLVQAGGSLRLSCAASGSIFDAYAMGWYRQSPGKERELVAAITTGGGSTYYADSVKGRFTISRDNAKNTVYLQMNSLKPEDTAVYYCAPDYGKYKGYYWGQGTQVTVSS | low polyreactivity
QVQLVESGGVLVQAGGSLRLSCAASRSIFQGYVMGWYRQAPGKERELVAAISYSGDSTYYADSVKGRFTNSRDNAKNTVSLQINSVKPEDTAVYYCNAYRNRYGYRTSSRRYGYWGQGTQVTVSS | high polyreactivity
QVQLVESGGGLVQAGGSLRLSCAASGSTYGIYAMGWYRQAPGKERELVAAISSGGSTNYADSVKGRFTISRDNAKNTVYLQMNSLKPEDTAVYYCAVESVYEYGGYVDSAYDYWGQGTQVTVSS | low polyreactivity
QVQLVESGGGLVQAGGSLRLSCAASGITFLKNAMGWYRQAPGKERELVAAISSSGGSTYYADSVKGRFTISRDNAKNTVYLQMNSLKPEDTAVYFCAARIYWYTPGRRGYTYDYWGQGTQVTVSS | high polyreactivity
QVQLVESGGGLVQAGGSLRLSCAASGRTFIGYAMGWYRPAPGKERELVAGISWSGGSTYYADSVKGRFTISRDNAKNPVSLQMNSLKPEDTAVYYCAARGRWSTEYGYWGQGTQVTVSS | low polyreactivity
QVQLVESGGGLVQAGGSLRLSCAASGFTLGSNVMGWYRQAPGKERELVAGISQSGGRTFYADSVKGRFTISRDNSKNTVYLQMNSLKPEDTAVYYCAARRYAVEGSKNYYWGQGTQVTVTS | low polyreactivity
QVQLVESGGGLVQAGGSLRLSCAASGSISFLYTMGWYRQAPGKERELVAAITGSTASTYYADSVKGRFTISRDNAKNTVYLQMNSLKPEDTAVYYCNADSYPGLNPDFDYWGQGTQVTVSS | low polyreactivity
QVQLVESGGRLVQAGGSLRLSCAASGRTFLHNAMGWYRQAPGKERELVAAIDSGGTTHYADSVKGRFTISRDNAKNTVYLQMNSLKPEDTAVYNCAARPTRGHWWYGNWGQGTQVTVTS | low polyreactivity
QVQLVESGGGLVQAGGSLRLSCAASGRTFRQYAMGWYRQAPGKERELVAAIRTNGGRTYYADSVKGRFTISRDNAKNTVYLQMNSLKPEDTAVYYCAVYDVVQGVLFDYWGQGTQVTVSS | high polyreactivity
QVQLVESGGGLVQAGGSLRLSCAASGRTFVVYAMGWYRQAPGKERELVAAITSSGNTYYADSVKGRFTISRDNAKNTVYLQMNSLKPEDTAVYYCAAYSLYGYDYWGQGTQVTVSS | low polyreactivity
QVQLVESGGGLLQAGGSLRLSCAASGLIFANYAMGWYRQAPGKERELVAAITWSGGTTYYADSVKGRFTISRDNAKNTVYLQMNSLKPEDTAVYYCAAEVPYYQAAEYDYWGQGTQVTVSS | low polyreactivity
QVQLVESGGGLVQAGGSLRLSCAASGRIYAMGWYRQAPGKERELVAAISRGGSTYYADSVKGRFTISRDNAKNTVYLQMNSLKPEDTAVYYCARRYASTGYDYWGQGTQVTVSS | high polyreactivity
QVQLVESGGGLVQAGGSLRLSCAASGSTFSRYAMGWYRQAPGKERELVAAISWRGGRTYYADSVKGRFTISRDNAKNTVYLPMNSLKPEDTAVYYCNAVSSFTSPRYAYWGQGTQVTVSS | high polyreactivity
QVQLVESGGGLVQAGGSLRLSCAASGRIFTGYAMGWYRQAPGKERELVAAITASGGNTYYADSVKGRFTISRDNAKNTVYLQMNSLKPEDTAVYYCAAGWYDQPDDYTSAYGVTKYGYWGQGTQVTVSS | low polyreactivity
QVQLVESGGGLVQAGGSLRLSCAASGSTLYHNAMGWYRQAPGKERELVAAITRGGSTYYADSVKGRFTISRDNAKNTVYLQMNILKPEDTAVYYCAVAVLVYYGKYYPYKMYYWGQGTQVTVSS | high polyreactivity
QVQLVESGGGLVHAGGSLRLSCAASGRTFKIYAMGWYRQAPGKERELVATISWRGGSTYYADSVKGRFTISRDNAKNTVYLQMNSLKPEDTAVYYCAKALYVAGSAYRAGYGVRYDYWGQGTQVTVSS | low polyreactivity
QVQLVESGGGLVQAGGSLRLSCAASGRTFVFYAMGWYRPAPGKERQLVAAITSGTSTNYADSVKGRFTISRDNAKNTGYLQMNSLNPEDTAVYYCAAYWTDLTYSIGFGYWGQGTQVTVSS | low polyreactivity
QVQLVESGGGLVQAGGSLRLSCAGSGLIFRIYAMGWYTQAPGKEREFVAAIRWRGGSTYYADSVKGRFTISRDNAKNTVYLQMNSLKPEDSAVYYCAVRYCPYRPRLDYWGQGTQVTVSS | high polyreactivity
QVQLVESGGGLVQAGGSLRLTCAASGITFKYKAMGWYRQAPGKEWELVAAISKGGGSTYYADSVKGRFTISRDNAKNTVYLQMNSLKPEVTAVYYCNAVPRRPVVSDTNPVGYDYWGEGTQVTVSS | low polyreactivity
QVQLVESGGGLVQAGGSLRLSCAASGRNFNSYAMGWYRQAPGKERELVAAISWNGGSTYYADSVKGRFTISRDNAKITVYLQMNSLKPEDTAVYYCAATYLLRGDAYYSWGQGTQVTVSS | high polyreactivity
QVQLVESGGGLVQAGGSLRLSCAAYGFTFSRKAMGWYRPAPGKERELVAAISIRGGSTYYADSVKGRFTISRDNAKITVYLQMNSLKPEDTAVYYCAALYRPTDYDYWGQGTQVTVSS | high polyreactivity

Sequence | polyreactivity (PSR sort gate)
QVQLVESGGGLVQAGGSLRLSCAASGFIFNAYVMGWYRQAPGKERELVAAITASGGSTYYADSVKGRFTISRDNAKNTVYLQMNSLKPEDTAVYYCAAAHPYDSRFDYWGQGTQVTVSS | high polyreactivity
QVQLVESGGRLFQAGGSLRLSCAASGRSYRYYAMGGYTKAPGKERELFAAISSGTRTNYADSVKGRFTISRDNAKNTVYFQMNSLKPEDTAVYYCKADGYRGYYGRNKSKYDFWGQGTQVTVSS | high polyreactivity
QVQLVESGGGLVQAGGSLRLSCAASGRIFRTNAQGWYRQAPGKERELVAAITRGGTTNYADSVKGRFTISRDNAKNTVYLQMNSLKPEDTAVYYCATRLSGWRYYLARYDYWGQGTQVTVSS | low polyreactivity
QVQLVESGGGLVQAGGSLRLICAASGRTFGGNAMGWYRQAPGKEWDLVAAISYSDGSKYYADSVKGRFTISRDNANNSVYLQMNSLKPEDTAVYYCAAARHVRTDYLDYDYWGQGTQVTVSS | low polyreactivity
QVQLVESGGGLVQAGGSLRLSCAASGRTFFYYAMGWYRQAPGKERELVAGITSTGSSTYYADSVKGRFTISRDNAKNTLYLQMNSLKPEDTAVYYCAADRYTTYSGQWSYPYDYWGQGTQVTVSS | low polyreactivity
QVQLVESGGGFVQAGGSLRLSCAASGRTIPYYAMGWYRQARGKEWELVATISTGDSTYYADSVKGRFTISRDNAKNTLYLQMNSLKPEATAVYSCAKDRYTYWSVHAFRRLDYWGKGTQVTVSS | low polyreactivity
QVQLVESGGGLVQAGGSLRLSCAASGGTFKTYVMGWSRQEPGKERELVAVISGSGASTYYADSVKGRFTISRDNAKNTVYLQMNSLKPEDTAVYYCAARYAWGWSGYYYWGQGTQVTVSS | high polyreactivity
QVQLVESGGGLVQAGGSLRLSCAASGFTFRYYTLGWYRQAPGKERELVAVMRSTGSTNYADSVKGRFTISRDNAKNTVYLQMNSLKAEDTAVYYCNAARGWYNPPKYGSIGFDYWGQGTQVTVSS | high polyreactivity
QVQLVESGGGLVQAGGSLRLSCAASGFTFAKYAMGWYRQAPGKERELVAAISSNGGTTYYADSVKGRFTISRDNAKNTDYLQMNSLKPEDTALYYCAAYTYRRPSTFTKVAFDYWGQGSQVTVSS | high polyreactivity
QVQLVESGGGLVQAGGSLRLSCAASGSIFGTYAMGWYRQAPGKEREFVAAISWSDGSTYYADSVKGRFTISRDNAKNTVYLQMNSLKPEDTAVYYCAAKSDPYRHDYWGQGTQVTVSS | low polyreactivity
QVQLVESGGGLVQAGGSLRLSCAASGRTFGFYAMGWYRQAPGKERELVATITYRGSGGSTYYADSVKGRFTISRDNAKNTVYLQMNSLKPEDTAVYYCAADKRYSRYFSFDYWGQGTQVTVSS | high polyreactivity
QVQLVESGGGLVQAGGSLRLSCAASGRIFYSYARGWYRQAPGKERELVAAIDESDGSTYYADSVKGRFTISRDNAKNTVYLQMNSLKPEDTAVYYCAADSLLVLFDYWGQGTQVTVSS | low polyreactivity
QVQLVESGGGLVQAGGSLRLSCAASGRILRINPMGWYRQAPGKERELVAAISGSGGTTYYADSVKGRFTISRDNAKNTVYLQMNSLKPEDTAVYYCNKAIWYAEYDYWGQGTQVTVSS | low polyreactivity
QVQLVESGGGLVQAGGSLRLSCAASGSTSYVYAMGWYRQAPGKEREFVAAIRSSGGDTYYADSVKGRFTISRDNAKNTVYLQMNRLKPEDSAVYYCNDRYATAVARFGYWGQGTQVTVSS | high polyreactivity
QVQLVESGGGLVQAGGSLRLSCAASGRTFAHYAMGWYRQAPGKERELVAVITSGGITYYADSVKGRFTISRDNAKNTVYLQMNSLKPEDTAVYYCNVYSYYYSYGSPYDYWGQGTQVTVSS | high polyreactivity
QVQLVESGGGLVQAGGSLRLSCAASGSIFANAMGWYRQAPGKEREVVAAISFSGGRTFYADSVKGRFTISRDNAKNTVYLQMNSLKPEDTAVYYCAKGKKSSRSGIYNYWGQGTQVTVSS | high polyreactivity
QVQLVESGGGLVQAGGSLRLSCAASGSIFTRNAMGWYRQAPGKERELVAAISRGGGTNYADSVKGRFTISRDNAKNTVYLQMNSLKPEDTAVYYCAKGWLPNGIPTYFRPYGLDYWGQGTQVTVSS | high polyreactivity
QVQLVESGGGLVQAGGSLRLSCAASGRIFFGYAMGWYRQAPGKERELVATITSGGSTYYADSVKGRFTISRDNAKNTVYLQMNSLKPEDTAVYYCASQLHWVFTSGWAYRGSYDYWGQGTQVTVSS | low polyreactivity
QVQLVESGGGLVQAGGSLRLSCAASGITFYDYAMGWYRQAPGKERELVASIDNSGGSTYYADSVKGRFTISRDNAKNTVYLQMNSLNPEDTAVYYCAAVSRYYFLGVAFLDDYWGQGTQVTVSS | high polyreactivity
QVQLVESGGGLDQAGGSLRLSCAASGSIFQDYAMGWYRQAPGKERELVAAITKSGVSTYYADSVKGRFTISRDNAKNTVYLQMNSLKPEDTAVYYCAAPRYVRYHRGYGFDYWGQGTQVTVSS | low polyreactivity
QVQLVESGGGLVQAGGSLRLSCAASGRIFYPNAMGWYRQAPGKERELVAAITSGGRTYYADSVKGRFTISRDNAKNTVYLQMNSLKPEDTAVYYCNARYSFWRSGPGYQGVDYWGQGTQVTVSS | high polyreactivity
